This note sets out measurements from EP4778941A1 (Jiangsu Hengrui Pharmaceuticals Co., Ltd., dated 2025).

The target of experiment [1] is T1, Human HER3 protein on the cell surface (human, UniProt P21860 20-1342). As to the kind of experiment: cell-based or functional assay.
Experiment [2] deals with T2, Human MET protein on the cell surface (human, UniProt P08581 25-1390). As to the kind of experiment: cell-based or functional assay.
For experiment [3], the target named is T1, Human HER3 protein on the cell surface. As to the kind of experiment: cell-based or functional assay. This is another data set of the same source.
For experiment [4] the target is unchanged. As to the kind of experiment: cell-based or functional assay. The source holds these as a separate data set.
Experiment [5] has as its target T2, Human MET protein on the cell surface. As to the kind of experiment: FACS on NCI-H1703 cells (MET single-positive).
Experiment [6] addresses T1, Human HER3 protein on the cell surface. As to the kind of experiment: FACS on MDA-MB-453 cells (HER3 single-positive).
Experiment [7] has the same target. As to the kind of experiment: FACS on HCC827 Osimertinib-resistant cells (HER3/MET double-positive).
In experiment [8] the target is T3, His-tagged human HER3 antigen (human, UniProt P21860 20-643).
T3 construct: Soluble antigen used as analyte in SPR; not shown: His tag
As to the kind of experiment: SPR, Biacore 8K; antibody captured, His-tagged human HER3 antigen 6.25-400 nM as analyte; 1:1 Langmuir. For orientation: In SPR one partner is held on a chip, and binding of the other changes the refractive index at the surface.

Experiment [9] deals with T4, Human HER3 and MET proteins together on HER3/MET double-positive cells (human, UniProt P21860 20-1342; P08581 25-1390). As to the kind of experiment: cell-based or functional assay.
Experiment [10] has as its target T4, Human HER3 and MET proteins together on …. As to the kind of experiment: cell-based or functional assay. The source holds these as a separate data set.
For experiment [11] the target is unchanged. As to the kind of experiment: cell-based or functional assay. The source holds these as a separate data set.
For experiment [12] the target is unchanged. As to the kind of experiment: FACS on HCC827 Osimertinib-resistant cells (HER3/MET double-positive).

The EC50 is the concentration needed to bring the measured effect to its halfway point. Low readings indicate an effect from little substance, high ones a need for much substance. The term Kd denotes the equilibrium constant for the complex coming apart. The koff is the first-order rate constant of dissociation. Usually kon stands for the rate constant with which the complex forms. Low values mean slow association, high ones fast association.

Read-outs that look alike come from different tables or passages of the source.

T2 sequence (P08581 25-1390): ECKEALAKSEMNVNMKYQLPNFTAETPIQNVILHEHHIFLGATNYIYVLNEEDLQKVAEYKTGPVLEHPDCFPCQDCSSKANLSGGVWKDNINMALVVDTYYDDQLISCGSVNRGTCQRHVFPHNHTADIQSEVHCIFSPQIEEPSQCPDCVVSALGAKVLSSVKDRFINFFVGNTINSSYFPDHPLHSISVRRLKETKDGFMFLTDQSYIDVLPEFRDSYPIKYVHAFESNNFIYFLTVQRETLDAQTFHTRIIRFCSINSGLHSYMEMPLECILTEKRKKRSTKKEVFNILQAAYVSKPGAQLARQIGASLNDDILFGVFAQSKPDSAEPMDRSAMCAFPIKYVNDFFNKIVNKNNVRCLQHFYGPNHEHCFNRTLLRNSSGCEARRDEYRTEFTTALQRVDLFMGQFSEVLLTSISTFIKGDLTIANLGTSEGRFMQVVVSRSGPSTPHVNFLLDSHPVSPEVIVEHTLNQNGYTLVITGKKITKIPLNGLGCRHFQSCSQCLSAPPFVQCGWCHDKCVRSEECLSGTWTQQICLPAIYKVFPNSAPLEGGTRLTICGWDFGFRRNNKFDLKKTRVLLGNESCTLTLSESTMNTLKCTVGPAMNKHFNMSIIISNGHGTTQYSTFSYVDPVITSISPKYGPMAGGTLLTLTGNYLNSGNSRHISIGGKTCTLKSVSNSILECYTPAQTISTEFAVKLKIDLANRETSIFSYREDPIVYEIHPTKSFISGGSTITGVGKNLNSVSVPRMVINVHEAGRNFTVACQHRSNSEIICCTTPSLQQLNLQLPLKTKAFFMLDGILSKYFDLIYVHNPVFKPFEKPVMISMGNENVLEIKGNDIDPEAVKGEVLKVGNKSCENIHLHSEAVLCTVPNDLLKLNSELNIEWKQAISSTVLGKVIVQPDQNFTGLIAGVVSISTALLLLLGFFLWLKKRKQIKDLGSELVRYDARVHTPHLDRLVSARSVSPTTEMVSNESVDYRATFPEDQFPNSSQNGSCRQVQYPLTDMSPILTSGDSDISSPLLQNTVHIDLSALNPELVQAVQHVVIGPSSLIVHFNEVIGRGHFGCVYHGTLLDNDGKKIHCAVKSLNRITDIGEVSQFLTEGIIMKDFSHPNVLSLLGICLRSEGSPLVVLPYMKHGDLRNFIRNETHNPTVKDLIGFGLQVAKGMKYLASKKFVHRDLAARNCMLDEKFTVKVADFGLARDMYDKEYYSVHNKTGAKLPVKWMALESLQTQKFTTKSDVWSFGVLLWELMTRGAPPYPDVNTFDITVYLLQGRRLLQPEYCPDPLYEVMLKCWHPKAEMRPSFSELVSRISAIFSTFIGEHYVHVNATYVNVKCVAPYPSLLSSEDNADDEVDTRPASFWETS

B1: Anti-HER3 antibody A (antibody, human IgG1, kappa, V domains shown)
VH: QVQLVQSGGGLVQPGRSLRLSCAASGFTFDDYAMHWVRQAPGKGLEWVSGISWNSGSIGYADSVKGRFTISRDNAKNSLYLQMNSLRAEDTALYYCAKEGLPGLDYWGQGTLVTVSS
VL: DIQMTQSPSSLSASIGDRATITCRASQHVGTYLNWYQQKPGKTPKLLISGAANLQSGVPSRFSGSGSGTDFTLTISSLQPEDFATYYCQQSYNTPPFSFGQGTKVEIKR
As to B1, the “Minimum cell viability (%)” value in experiment [1] came out at 28.5%. Moreover, in experiment [2], the “Minimum cell viability (%)” value was found to be 77.8%. Further, the “Minimum cell viability (%)” value in experiment [3] turned out to be 63.8%. In addition, in experiment [4], the “Endocytosis ratio at 0 h (FACS)” value is 0%, the “Endocytosis ratio at 0.5 h (FACS)” value was 55.5%, the “Endocytosis ratio at 2 h (FACS)” value was 80% and the “Endocytosis ratio at 6 h (FACS)” value was determined as 82.2%. Moreover, in [5], the Maximum fluorescence value was determined as 81. In experiment [6], this molecule displayed a concentration for a half-maximal effect (EC50) of 0.48 nM and a Maximum fluorescence value of 1860. Further, in experiment [7], a half-maximal effect (EC50) was put at 2.06 nM and the Maximum fluorescence value was 1020. In addition, in experiment [8], binding was characterised by a dissociation constant (Kd) of 14.5 nM, the koff is 0.0103 s⁻¹ and the kon was found to be 707000 M⁻¹ s⁻¹.

B2: Anti-HER3/MET bispecific antibody 2232-01 (A13-A) (bispecific antibody, human IgG1, kappa)
heavy 1: not shown
light 1: DIQMTQSPSSVSASVGDRVTITCRASQGINTWLAWYQQKPGKAPKLLIYAASSLKSGVPSRFSGSGSGADFTLTISSLQPEDFATYYCQQANSFPLTFGGGTKVEIKGGGGSGIPPKIECLPIDISIDEGKVLTVASAFTGEPTPEVTWSTGGRKIHSQEQGRFHIENTDDSTTLTIKDVQKQDGGLYTLTLRNEFGSDSATVNIHIRSI
heavy 2: QVQLVQSGGGLVQPGRSLRLSCAASGFTFDDYAMHWVRQAPGKGLEWVSGISWNSGSIGYADSVKGRFTISRDNAKNSLYLQMNSLRAEDTALYYCAKEGLPGLDYWGQGTLVTVSSASTKGPSVFPLAPSSKSTSGGTAALGCLVKDYFPEPVTVSWNSGALTSGVHTFPAVLQSSGLYSLSSVVTVPSSSLGTQTYICNVNHKPSNTKVDKKVEPKSCDKTHTCPPCPAPELLGGPSVFLFPPKPKDTLMISRTPEVTCVVVDVSHEDPEVKFNWYVDGVEVHNAKTKPREEQYNSTYRVVSVLTVLHQDWLNGKEYKCKVSNKALPAPIEKTISKAKGQPREPQVCTLPPSREEMTKNQVSLSCAVKGFYPSDIAVEWESNGQPENNYKTTPPVLDSDGSFFLVSKLTVDKSRWQQGNVFSCSVMHEALHNHYTQKSLSLSPGK
light 2: DIQMTQSPSSLSASIGDRATITCRASQHVGTYLNWYQQKPGKTPKLLISGAANLQSGVPSRFSGSGSGTDFTLTISSLQPEDFATYYCQQSYNTPPFSFGQGTKVEIKRTVAAPSVFIFPPSDEQLKSGTASVVCLLNNFYPREAKVQWKVDNALQSGNSQESVTEQDSKDSTYSLSSTLTLSKADYEKHKVYACEVTHQGLSSPVTKSFNRGEC
notes: Four chains: H1 = A13 VH-GGGGS-Obscurin-O chain-IgG1 Fc1 (S354C/T366W); L1 = A13 VL-GGGGS-Titin-T chain; H2 = antibody A VH-CH1-IgG1 Fc2 (Y349C/T366S/L368A/Y407V); L2 = antibody A VL-CL
Consider B2, for which the “Minimum cell viability (%)” value in experiment [9] amounted to 12.4%; in experiment [1], 21.7%; in [2] it was 0.6%; in experiment [10] it was 24.7%. In [11], the “Endocytosis ratio at 0 h (FACS)” value was found to be 0%. Moreover, the “Endocytosis ratio at 0.5 h (FACS)” value in experiment [11] was determined as 67.9%. In [11], the “Endocytosis ratio at 2 h (FACS)” value turned out to be 83.2%. In addition, in experiment [11], the “Endocytosis ratio at 6 h (FACS)” value came out at 84.1%. Besides, the EC50 amounted to 1.03 nM in experiment [5], 2.72 nM in experiment [6] and 0.52 nM in experiment [12]. Also, the Maximum fluorescence value in experiment [5] was found to be 2430; in experiment [6], 1950; in experiment [12], 2470.
